Experimental data published in patent US20160177307.

Experiments:
Assay in all cases: filter
[1] = target: PDGF-BB (platelet-derived growth factor BB) (Homo sapiens) (UniProt P01127)
[2] = test system: T1, VEGF-121 (Homo sapiens), P15692-9
T1 sequence: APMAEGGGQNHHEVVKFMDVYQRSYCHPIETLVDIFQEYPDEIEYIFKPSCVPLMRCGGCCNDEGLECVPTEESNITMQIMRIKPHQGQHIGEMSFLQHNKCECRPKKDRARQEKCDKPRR

[3] = test system: T2, VEGF-165 (Homo sapiens), P15692-4
T2 sequence: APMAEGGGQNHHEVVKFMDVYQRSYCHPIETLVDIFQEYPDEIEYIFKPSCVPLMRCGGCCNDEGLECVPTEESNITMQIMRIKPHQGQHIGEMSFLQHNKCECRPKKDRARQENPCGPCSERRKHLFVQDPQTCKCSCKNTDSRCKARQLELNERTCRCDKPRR

[4] = test system: T3, VEGF-164 (Rattus norvegicus), P16612-2; conditions: P=Nap-dU
T3 sequence: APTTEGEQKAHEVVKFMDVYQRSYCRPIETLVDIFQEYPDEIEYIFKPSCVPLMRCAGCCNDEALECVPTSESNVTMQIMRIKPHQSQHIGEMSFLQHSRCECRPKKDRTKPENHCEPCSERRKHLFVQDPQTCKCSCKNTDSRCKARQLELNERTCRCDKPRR

[5] = Nap-dU, Bn-dU, MBn-dU, 2'-OMe, C3, 5 Heg between parts
[6] = Nap-dU, Bn-dU, MBn-dU, 2'-OMe, C3, 2 Heg between parts
[7] = Bn-dU, MBn-dU, Nap-dU, 2'-OMe, C3, 6 Heg between parts
[8] = Nap-dU, Bn-dU, MBn-dU, 2'-OMe, C3, 1 Heg between parts
[9] = Nap-dU, Bn-dU, MBn-dU, 2'-OMe, C3, 6 Heg between parts
[10] = PDGF-VEGF, no Heg linker, NapdU, BndU
[11] = Bn-dU, MBn-dU, Nap-dU, 2'-OMe, C3, 4 Heg between parts
[12] = Nap-dU, Bn-dU, MBn-dU, 2'-OMe, C3, 3 Heg between parts

Sequence of PDGF-BB (platelet-derived growth factor BB) (Homo sapiens) (P01127 82-190): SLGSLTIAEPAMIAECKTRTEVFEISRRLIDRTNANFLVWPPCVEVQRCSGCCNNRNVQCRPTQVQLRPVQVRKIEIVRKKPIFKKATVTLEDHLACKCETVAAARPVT

With “CCGTTCAAGTGCTTGTAGGATTTAAATGGTTACGTTACCGCGTTTATAGCG [4149-8_412]” the Kd [1, 5] was 8.6 pM, the Kd [2, 5] was 0.02 nM and the Kd [3, 5] was 0.045 nM.

With “CCGTTCAAGTGCTTGTAGGATTTAAATGGTTACGTTACCGCGTTTATAGCG [4149-8_409]” the Kd [1, 6] was 600 pM, the Kd [2, 6] was 0.026 nM and the Kd [3, 6] was 0.029 nM.

“TCAATCAGCCGTTCAAGTGCTTGTAGGATTTAAATG [4867-31_24]” showed a Kd ([2]; NapdU at P) of 36 nM, a Kd [4] of 4.2 nM and a Kd ([3]; NapdU at P) of 2.8 nM.

“CAGCCGTTCAAGTGCTTGTAGGATTTAAATGG [4867-31_44]” gave a Kd ([2]; NapdU at P) of 0.14 nM, a Kd [4] of 0.38 nM and a Kd ([3]; NapdU at P) of 0.13 nM.

“AGCCGTTCAAGTGCTTGTAGGATTTAAATGGAA [4867-31_37]” was tested, and the Kd ([2]; P=Nap-dU) was 0.21 nM, the Kd [4] was 0.04 nM and the Kd ([3]; P=Nap-dU) was 0.092 nM.

Sequence “TTACGTTACCGCGTTTATAGCGCCGTTCAAGTGCTTGTAGGATTTAAATGG [4149-8_417]” has a Kd [1, 7] of 11 pM, a Kd [2, 7] of 0.043 nM and a Kd [3, 7] of 0.065 nM.

“CCGTTCAAGTGCTTGTAGGATTTAAATGGTTACGTTACCGCGTTTATAGCG [4149-8_408]” was tested, and the Kd [1, 8] was 43 pM, the Kd [2, 8] was 0.044 nM and the Kd [3, 8] was 0.041 nM.

“GTTCAAGTGCTTGTAGGATTTAAATGGA [4867-31_61]” gave a Kd ([2]; NapdU at P) of 33 nM, a Kd [4] of 13 nM and a Kd ([3]; NapdU at P) of 2.9 nM.

“CCGTTCAAGTGCTTGTAGGATTTAAATGGTTACGTTACCGCGTTTATAGCG [4149-8_413]” showed a Kd [1, 9] of 10 pM, a Kd [2, 9] of 0.04 nM and a Kd [3, 9] of 0.063 nM.

In the case of “TTACGTTACACGCGTTTATAGCGCCGTTCAAGTGCTTTAGATTTAAATG [4149-8_317]”, the Kd [1, 10] is reported as 63.8 pM and the Kd [2, 10] is reported as 0.0809 nM.

“TCAGCCGTTCAAGTGCTTGTAGGATTTAAATGGA [4867-31_41]” gave a Kd ([2]; P=Nap-dU) of 0.63 nM, a Kd [4] of 0.08 nM and a Kd ([3]; P=Nap-dU) of 0.13 nM.

In the case of “CGACAGCATGTATGCACATCTCCGTTCAAGTGCTTGTAGGATTTAAATGG [5169-4_99]”, the Kd ([1]; PDGF-6Heg-VEGF, NapdU, 2'-OMe) is reported as 2.1 pM and the Kd ([2]; PDGF-6Heg-VEGF, NapdU, 2'-OMe) is reported as 0.12 nM.

In the case of “AATCAGCCGTTCAAGTGCTTGTAGGATTTAAATGGAAT [4867-31_27]”, the Kd ([2]; P=Nap-dU) is reported as 0.59 nM, the Kd [4] is reported as 0.07 nM and the Kd ([3]; P=Nap-dU) is reported as 0.11 nM.

Sequence “CGACAGCATGTATGCACATCTCCGTTCAAGTGCTTGTAGGATTTAAATGG [5169-4_103]” has a Kd ([1]; PDGF-2Heg-VEGF, NapdU, 2'-OMe) of 6.1 pM and a Kd ([2]; PDGF-2Heg-VEGF, NapdU, 2'-OMe) of 0.12 nM.

Work on “TCAATCAGCCGTTCAAGTGCTTGTAGGATTTAAAT [4867-31_25]” yielded a Kd ([2]; NapdU at P) of 70 nM, a Kd [4] of 16 nM and a Kd ([3]; NapdU at P) of 26 nM.

Work on “TTACGTTACCGCGTTTATAGCGCCGTTCAAGTGCTTGTAGGATTTAAATGG [4149-8_415]” yielded a Kd [1, 11] of 8.1 pM, a Kd [2, 11] of 0.04 nM and a Kd [3, 11] of 0.03 nM.

In the case of “CGACAGCATGTATGCACATCTCCGTTCAAGTGCTTGTAGGATTTAAATGG [5169-4_102]”, the Kd ([1]; PDGF-3Heg-VEGF, NapdU, 2'-OMe) is reported as 11 pM and the Kd ([2]; PDGF-3Heg-VEGF, NapdU, 2'-OMe) is reported as 0.14 nM.

“CAATCAGCCGTTCAAGTGCTTGTAGGATTTAAATGGAA [4867-31_32]” was tested, and the Kd ([2]; P=Nap-dU) was 0.51 nM, the Kd [4] was 0.06 nM and the Kd ([3]; P=Nap-dU) was 0.1 nM.

In the case of “CCGTTCAAGTGCTTGTAGGATTTAAATGGCGACAGCATGTATGCACATCT [5169-4_95]”, the Kd ([1]; VEGF-4Heg-PDGF, NapdU, 2'-OMe) is reported as 1.2 pM and the Kd ([2]; VEGF-4Heg-PDGF, NapdU, 2'-OMe) is reported as 0.043 nM.

With “AGCCGTTCAAGTGCTTGTAGGATTTAAAT [4867-31_53]” the Kd ([2]; NapdU at P) was 19 nM and the Kd ([3]; NapdU at P) was 3.2 nM.

Sequence “CCGTTCAAGTGCTTGTAGGATTTAAATGGCGACAGCATGTATGCACATCT [5169-4_98]” has a Kd ([1]; VEGF-1Heg-PDGF, NapdU, 2'-OMe) of 5.3 pM and a Kd ([2]; VEGF-1Heg-PDGF, NapdU, 2'-OMe) of 0.14 nM.

“AATCAGCCGTTCAAGTGCTTGTAGGATTTAAATGGA [4867-31_39]” was tested, and the Kd ([2]; P=Nap-dU) was 0.62 nM, the Kd [4] was 0.09 nM and the Kd ([3]; P=Nap-dU) was 0.2 nM.

For “CCGTTCAAGTGCTTGTAGGATTTAAATGGTTACGTTACCGCGTTTATAGCG [4149-8_410]”, the Kd [1, 12] was 20 pM, the Kd [2, 12] was 0.026 nM and the Kd [3, 12] was 0.033 nM.

In the case of “ATCAGCCGTTCAAGTGCTTGTAGGATTTAAATGGAAT [4867-31_28]”, the Kd ([2]; P=Nap-dU) is reported as 0.97 nM, the Kd [4] is reported as 0.07 nM and the Kd ([3]; P=Nap-dU) is reported as 0.1 nM.

With “TCAGCCGTTCAAGTGCTTGTAGGATTTAAATGGAAT [4867-31_29]” the Kd ([2]; P=Nap-dU) was 0.96 nM, the Kd [4] was 0.08 nM and the Kd ([3]; P=Nap-dU) was 0.13 nM.

For “CCGTTCAAGTGCTTGTAGGATTTAAATGGCGACAGCATGTATGCACATCT [5169-4_97]”, the Kd ([1]; VEGF-2Heg-PDGF, NapdU, 2'-OMe) was 3.7 pM and the Kd ([2]; VEGF-2Heg-PDGF, NapdU, 2'-OMe) was 0.1 nM.

For “ATCAGCCGTTCAAGTGCTTGTAGGATTTAAATGGA [4867-31_40]”, the Kd ([2]; P=Nap-dU) was 0.7 nM, the Kd [4] was 0.1 nM and the Kd ([3]; P=Nap-dU) was 0.14 nM.

Work on “CAGCCGTTCAAGTGCTTGTAGGATTTAAATG [4867-31_45]” yielded a Kd ([2]; NapdU at P) of 3.3 nM, a Kd [4] of 4.5 nM and a Kd ([3]; NapdU at P) of 1.1 nM.
